Assay results as given in patent publication US20240226308A1, “DOSING REGIMENS OF PEPTIDE CONJUGATES OF TOPOISOMERASE I INHIBITORS” (CYBREXA 2, INC., priority 2021, published 2024).
Entries after “also recorded” stand apart in the source; their conditions may differ. Read-outs that look alike come from different tables or passages of the source.

What was measured:
[1] = Phase 1/2 study of Compound 1: pharmacokinetics; format: in vivo, human; settings: for half-life: in vivo
Excerpt: (§1) This is a first-in-human, Phase 1/2 open-label, multicenter, dose-escalation, safety, pharmacokinetics (PK), and biomarker study of Compound 1 in subjects with advanced or metastatic refractory solid tumors.
• To determine the pharmacokinetics (PK) of Compound 1 • To evaluate the preliminary anti-tumor activity of Compound 1 based on Response Evaluation Criteria in Solid Tumors (RECIST) 1.1 as follows: • Objective response rate (ORR) • Duration of response (DoR) • Progression-free survival (PFS)
(§2) The subject will receive treatment with Compound 1 and be monitored for safety and disease status by AE assessment, physical examination, laboratory tests, radiologic assessment, and ECG. PK and biomarker samples will be collected. All AEs and serious adverse events (SAEs) will be assessed using the National Cancer Institute Common Terminology Criteria for Adverse Events (NCI CTCAE) v5.0. Disease assessments by computed tomography (CT) or magnetic resonance imaging (MRI) will be conducted at protocol-specific intervals. Subjects may continue treatment as long as they are tolerating treatment without disease progression based on RECIST 1.1.
(§3) Compound 1 was administered as a 1-hour IV infusion. As set forth above, the first patient on study was treated with a starting dose of 0.25 mg/kg, which was dosed daily five times a week every 3 weeks (Schedule A). Initially. an accelerated dose tritation was utilized, wherein single patient cohorts were accrued and the dose was escalated up to 100% for each new cohort until the occurrence of Grade 2 or greater treatment-related adverse events (TRAEs). A single patient was accrued to Cohort A1 (0.25 mg/kg). The dose was doubled to 0.5 mg/kg for Cohort A2, and 3 patients were accrued to this cohort due to the occurrence of greater than Grade 2 level adverse events.

[2] = Phase 1/2 study of Compound 1: safety and tolerability (adverse events, NCI CTCAE v5.0); format: in vivo, human
Excerpt: as §1
• To determine the safety and tolerability, maximum tolerated doses (MTDs) and dose limiting toxicities (DLTs) of Compound 1 in subjects with advanced or metastatic refractory solid tumors when administered on the following schedules: • Daily×5 every 3 weeks (Part A) • Daily×3 every 3 weeks (Part B) • To establish the Recommended Phase 2 Dose (RP2D) of Compound 1 for each schedule
as §2
DLTs will be assessed for all subjects enrolled in Phase I through their initial 3-week cycle of treatment (Cycle 1, the DLT period). Any AE occurring during the DLT period deemed at least possibly related to Compound 1 and meeting the criteria below will be designated a DLT. […] This will, however, be considered in the SRC's subsequent dose-level recommendations.
as §3
Schedule B: once daily three times per week every three weeks, on a mg/m^2 basis (in other words, the dosage was calculated based on the patient's body surface area)
Schedule C: once weekly on a mg/m^2 basis. Patients treated on this schedule received a sentinel dose on Day -14 followed by 2 weeks of no treatment to evaluate the full PK profile of Compound 1 and exatecan. Once weekly dosing started Cycle 1 Day 1.

[3] = Subject 1-5, Ovarian, prior TOP1 inhibitor Yes, Cohort B1 20 mg/m^2, Schedule B: Daily x 3 Every 3 Weeks
[4] = Subject 1-8, Pancreas, prior TOP1 inhibitor Yes, Cohort C1 20 mg/m^2, Schedule C: Once Weekly
[5] = Subject 1-9, Colorectal, prior TOP1 inhibitor Yes, Cohort B3 45 mg/m^2, Schedule B: Daily x 3 Every 3 Weeks
[6] = Subject 2-4, Appendiceal, prior TOP1 inhibitor Yes, Cohort B2 30 mg/m^2, Schedule B: Daily x 3 Every 3 Weeks
[7] = Subject 2-6, Breast, prior TOP1 inhibitor No, Cohort B2 30 mg/m^2, Schedule B: Daily x 3 Every 3 Weeks
[8] = Subject 2-12, Breast, prior TOP1 inhibitor No, Cohort B4 60 mg/m^2, Schedule B: Daily x 3 Every 3 Weeks
[9] = Subject 3-1, Colorectal, prior TOP1 inhibitor Yes, Cohort B3 45 mg/m^2, Schedule B: Daily x 3 Every 3 Weeks
[10] = Subject 5-2, Colorectal, prior TOP1 inhibitor Yes, Cohort B4 60 mg/m^2, Schedule B: Daily x 3 Every 3 Weeks

CC[C@@]1(O)C(=O)OCc2c1cc1n(c2=O)Cc2c-1nc1cc(F)c(C)c3c1c2[C@@H](NC(=O)O[C@H]1CCCC[C@@H]1SSC[C@H](NC(=O)[C@H](Cc1c[nH]c2ccccc12)NC(=O)[C@H](CC(C)C)NC(=O)[C@H](CC(C)C)NC(=O)[C@H](CC(=O)O)NC(=O)[C@H](CC(C)C)NC(=O)[C@H](CC(C)C)NC(=O)[C@H](CC(C)C)NC(=O)[C@@H](NC(=O)[C@H](CC(=O)O)NC(=O)[C@@H](NC(=O)[C@@H]1CCCN1C(=O)[C@H](Cc1ccccc1)NC(=O)[C@H](CC(C)C)NC(=O)[C@H](CC(C)C)NC(=O)[C@H](CC(=O)O)NC(=O)[C@H](CC(C)C)NC(=O)[C@H](Cc1ccc(O)cc1)NC(=O)[C@H](C)NC(=O)[C@H](CCCNC(=N)N)NC(=O)[C@H](Cc1c[nH]c2ccccc12)NC(=O)[C@@H]1CCCN1C(=O)[C@H](CC(N)=O)NC(=O)[C@H](CCC(N)=O)NC(=O)[C@H](CC(=O)O)NC(=O)[C@H](CC(=O)O)NC(=O)[C@H](C)N)[C@@H](C)O)[C@@H](C)O)C(=O)NCC(=O)O)CC3 [Compound 1]
accumulation ([1]; five consecutive days of dosing, Schedule A): significant accumulation
half-life ([1]; human, initial four patients, Schedule A (daily five times a week every 3 weeks), 0.25-0.5 mg/kg, 1-hour IV infusion, read-out: half-life of Compound 1 (converted)): ~20 h
half-life ([1]; prediction made before the study, read-out: predicted half-life (converted)): ~8 h
adverse events, Grade level ([2]; Cohort A2, 0.5 mg/kg, Schedule A, 3 patients): > 2
Treatment-Related Adverse Events, Gr 1 [2, 3]: Gr 1: Fatigue
Treatment-Related Adverse Events, Gr 2 [2, 3]: Dehydration
Treatment-Related Adverse Events ([2]; Subject 1-6, Testicular, prior TOP1 inhibitor No, Cohort B1 20 mg/m^2, Schedule B: Daily x 3 Every 3 Weeks): No TRAEs
Treatment-Related Adverse Events, Gr 2 ([2]; Subject 1-7, Esophageal/GEJ (baseline Hgb 9.4), Cohort B1 20 mg/m^2, Schedule B: Daily x 3 Every 3 Weeks): Gr 2: Anemia
Treatment-Related Adverse Events, Gr 1 ([2]; Subject 1-7, Esophageal/GEJ, prior TOP1 inhibitor No, Cohort B1 20 mg/m^2, Schedule B: Daily x 3 Every 3 Weeks): Gr 1: Fatigue,
Treatment-Related Adverse Events, Gr 1 [2, 4]: Gr 1: Vomiting
Treatment-Related Adverse Events, Gr 2 [2, 4]: Gr 2: Nausea
Treatment-Related Adverse Events, Gr 1 [2, 5]: Gr 1: Vomiting,; also recorded: diarrhea
Treatment-Related Adverse Events, Gr 2 [2, 5]: Gr 2: Nausea
Treatment-Related Adverse Events, Gr 3 ([2]; Subject 1-9, Colorectal, AST/ALT elevation resolved to Gr 1 in 2-3 days, Cohort B3 45 mg/m^2, Schedule B: Daily x 3 Every 3 Weeks): anemia
Treatment-Related Adverse Events ([2]; Subject 2-1, Pancreas, prior TOP1 inhibitor Yes, Cohort C1 20 mg/m^2, Schedule C: Once Weekly): No TRAES
Treatment-Related Adverse Events ([2]; Subject 2-2, Colon, prior TOP1 inhibitor Yes, Cohort C1 20 mg/m^2, Schedule C: Once Weekly, off treatment after PK period): No TRAEs
Treatment-Related Adverse Events, Gr 2 ([2]; Subject 2-3, Ovarian, prior TOP1 inhibitor No, Cohort C1 20 mg/m^2, Schedule C: Once Weekly): Gr 2: Fatigue
Treatment-Related Adverse Events, Gr 1 [2, 6]: Gr 1: Anemia
Treatment-Related Adverse Events, Gr 2 [2, 6]: Gr 2: Nausea,; also recorded: vomiting
Treatment-Related Adverse Events, Gr 3 ([2]; Subject 2-5, Breast, prior TOP1 inhibitor Yes (C4D11), Cohort B2 30 mg/m^2, Schedule B: Daily x 3 Every 3 Weeks): Neutropenia
Treatment-Related Adverse Events, Gr 1 [2, 7]: Gr 1: Fatigue,; also recorded: nausea
Treatment-Related Adverse Events, Gr 2 [2, 7]: Neutropenia,; also recorded: WBC decrease
Treatment-Related Adverse Events ([2]; Subject 2-8, Osteosarcoma, prior TOP1 inhibitor Unknown, Cohort B3 45 mg/m^2, Schedule B: Daily x 3 Every 3 Weeks, removed from study on C1D2): No TRAEs
Treatment-Related Adverse Events ([2]; Subject 2-9, Breast, prior TOP1 inhibitor No, Cohort C1 20 mg/m^2, Schedule C: Once Weekly): No TRAEs
Treatment-Related Adverse Events, Gr 2 ([2]; Subject 2-11, Ovarian (C1D1 Hgb = 10.3), Cohort B3 45 mg/m^2, Schedule B: Daily x 3 Every 3 Weeks): Gr 2: Anemia
Treatment-Related Adverse Events, Gr 3 ([2]; Subject 2-11, Ovarian (resolved in 2 days), Cohort B3 45 mg/m^2, Schedule B: Daily x 3 Every 3 Weeks): Neutropenia
Treatment-Related Adverse Events, Gr 1 ([2]; Subject 2-11, Ovarian, prior TOP1 inhibitor No, Cohort B3 45 mg/m^2, Schedule B: Daily x 3 Every 3 Weeks): Gr 1: Nausea,; also recorded: lipase increase,; also recorded: alopecia
Treatment-Related Adverse Events, Gr 1 [2, 8]: Gr 1: Vomiting
Treatment-Related Adverse Events, Gr 2 [2, 8]: Gr 2: Colitis
Treatment-Related Adverse Events, Gr 4 [2, 8]: Neutropenia,; also recorded: thrombocytopenia
Treatment-Related Adverse Events, Gr 1 [2, 9]: Gr 1: Headache
Treatment-Related Adverse Events, Gr 2 [2, 9]: Gr 2: Nausea,; also recorded: WBC decrease,; also recorded: ANC decrease,; also recorded: diarrhea
Treatment-Related Adverse Events, Gr 2 [2, 10]: Gr2: Vomiting,; also recorded: dehydration
Treatment-Related Adverse Events, Gr 3 [2, 10]: anemia
Treatment-Related Adverse Events, Gr 4 [2, 10]: Neutropenia,; also recorded: thrombocytopenia
